Experimental data as given in IntAct's records for PubMed 11356864.

B1: Syndecan-2 (Rattus norvegicus (Rat)), P34900 (parent)
chain: MQRAWILLTLGLMACVSAETRAELTSDKDMYLDSSSIEEASGLYPIDDDDYSSASGSGAYEDKGSPDLTTSQLIPRISLTSAAPEVETMTLKTQSITPTQTESPEETDKKEFEISEAEEKQDPAVKSTDVYTEKHSDNLFKRTEVLAAVIAGGVIGFLFAIFLILLLVYRMRKKDEGSYDLGERKPSSAAYQKAPTKEFYA

Variants of: B1
Settings: with nf1_human NF1, P21359
nf1_human NF1, P21359, sequence (P21359 whole entry): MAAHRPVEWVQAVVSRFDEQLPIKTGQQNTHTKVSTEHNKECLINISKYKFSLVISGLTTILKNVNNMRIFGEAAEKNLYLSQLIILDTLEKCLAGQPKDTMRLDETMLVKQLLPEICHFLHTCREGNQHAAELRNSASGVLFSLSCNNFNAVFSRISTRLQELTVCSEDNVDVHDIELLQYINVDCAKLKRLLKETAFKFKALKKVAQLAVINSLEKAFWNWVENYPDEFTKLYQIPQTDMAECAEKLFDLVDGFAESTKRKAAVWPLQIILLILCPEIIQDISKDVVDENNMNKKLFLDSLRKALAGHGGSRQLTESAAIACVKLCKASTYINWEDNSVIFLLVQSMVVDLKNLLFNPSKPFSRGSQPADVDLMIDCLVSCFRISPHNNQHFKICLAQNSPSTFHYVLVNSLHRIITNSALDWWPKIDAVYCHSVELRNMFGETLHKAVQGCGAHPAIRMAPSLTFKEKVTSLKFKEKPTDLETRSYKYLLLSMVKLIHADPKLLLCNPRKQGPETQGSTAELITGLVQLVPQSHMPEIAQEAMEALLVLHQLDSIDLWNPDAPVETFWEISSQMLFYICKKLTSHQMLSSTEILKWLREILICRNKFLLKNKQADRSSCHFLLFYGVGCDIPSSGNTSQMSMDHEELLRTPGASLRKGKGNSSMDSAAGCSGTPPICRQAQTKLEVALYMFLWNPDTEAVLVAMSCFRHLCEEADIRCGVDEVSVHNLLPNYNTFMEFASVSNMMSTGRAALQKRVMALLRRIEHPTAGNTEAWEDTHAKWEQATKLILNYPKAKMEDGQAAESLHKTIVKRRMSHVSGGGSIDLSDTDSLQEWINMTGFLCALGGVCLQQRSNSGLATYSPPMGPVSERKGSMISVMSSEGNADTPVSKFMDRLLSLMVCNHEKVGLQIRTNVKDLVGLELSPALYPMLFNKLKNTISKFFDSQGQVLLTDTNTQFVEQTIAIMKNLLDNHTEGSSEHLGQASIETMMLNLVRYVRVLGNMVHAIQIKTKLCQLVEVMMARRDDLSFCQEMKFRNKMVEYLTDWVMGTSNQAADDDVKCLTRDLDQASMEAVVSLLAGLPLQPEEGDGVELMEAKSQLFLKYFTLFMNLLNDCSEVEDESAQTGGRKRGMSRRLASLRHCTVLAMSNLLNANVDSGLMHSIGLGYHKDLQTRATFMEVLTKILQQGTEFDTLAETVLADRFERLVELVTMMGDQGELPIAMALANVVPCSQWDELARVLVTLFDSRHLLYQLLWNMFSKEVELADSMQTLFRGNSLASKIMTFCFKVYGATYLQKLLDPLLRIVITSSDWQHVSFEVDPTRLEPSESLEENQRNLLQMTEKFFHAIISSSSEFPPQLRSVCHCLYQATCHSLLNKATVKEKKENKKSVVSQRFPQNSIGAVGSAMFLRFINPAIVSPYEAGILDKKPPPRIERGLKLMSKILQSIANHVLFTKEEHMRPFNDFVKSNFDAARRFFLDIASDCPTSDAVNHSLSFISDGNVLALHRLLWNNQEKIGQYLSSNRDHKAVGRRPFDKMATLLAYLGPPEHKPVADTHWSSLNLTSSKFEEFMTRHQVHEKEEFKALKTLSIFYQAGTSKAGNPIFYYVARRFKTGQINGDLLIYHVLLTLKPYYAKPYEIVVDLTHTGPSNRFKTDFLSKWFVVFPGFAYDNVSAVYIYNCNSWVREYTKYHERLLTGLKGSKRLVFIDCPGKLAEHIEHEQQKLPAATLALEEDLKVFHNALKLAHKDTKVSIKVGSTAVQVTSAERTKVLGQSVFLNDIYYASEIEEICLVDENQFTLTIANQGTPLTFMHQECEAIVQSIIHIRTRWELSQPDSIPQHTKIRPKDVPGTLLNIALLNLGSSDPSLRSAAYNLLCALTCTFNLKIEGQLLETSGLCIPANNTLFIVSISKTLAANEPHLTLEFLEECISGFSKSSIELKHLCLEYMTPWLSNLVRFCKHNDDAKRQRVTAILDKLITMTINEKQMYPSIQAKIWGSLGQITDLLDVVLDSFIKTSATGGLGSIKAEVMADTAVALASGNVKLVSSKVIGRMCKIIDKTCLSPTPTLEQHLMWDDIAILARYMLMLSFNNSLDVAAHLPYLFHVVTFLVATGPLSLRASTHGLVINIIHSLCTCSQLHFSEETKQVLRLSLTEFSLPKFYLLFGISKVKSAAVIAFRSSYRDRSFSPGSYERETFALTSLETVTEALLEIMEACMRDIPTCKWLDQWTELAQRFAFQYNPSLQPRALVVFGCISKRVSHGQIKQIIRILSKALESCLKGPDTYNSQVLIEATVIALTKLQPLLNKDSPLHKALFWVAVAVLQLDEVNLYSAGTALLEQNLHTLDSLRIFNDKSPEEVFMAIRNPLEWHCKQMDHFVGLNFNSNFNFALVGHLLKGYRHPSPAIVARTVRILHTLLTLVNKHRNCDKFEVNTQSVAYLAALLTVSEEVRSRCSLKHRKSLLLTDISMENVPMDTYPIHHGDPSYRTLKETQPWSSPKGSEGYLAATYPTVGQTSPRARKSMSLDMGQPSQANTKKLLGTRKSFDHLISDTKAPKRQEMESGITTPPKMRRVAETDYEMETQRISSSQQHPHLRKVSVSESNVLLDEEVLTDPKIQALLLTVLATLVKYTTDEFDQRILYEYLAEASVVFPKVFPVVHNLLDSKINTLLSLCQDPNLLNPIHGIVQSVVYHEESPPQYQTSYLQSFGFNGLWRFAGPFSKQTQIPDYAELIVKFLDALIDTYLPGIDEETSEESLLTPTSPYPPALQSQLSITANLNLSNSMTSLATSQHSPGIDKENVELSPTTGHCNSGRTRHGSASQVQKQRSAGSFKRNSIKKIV

Row | Variant | effect of a mutation on the interaction
1 | MQRAWILLTLGLMACVSAETRAELTSDKDMYLDSSSIEEASGLYPIDDDDYSSASGSGAYEDKGSPDLTTSQLIPRISLTSAAPEVETMTLKTQSITPTQTESPEETDKKEFEISEAEEKQDPAVKSTDVYTEKHSDNLFKRTEVLAAVIAGGVIGFLFAIFLILLLVYRMRKAAEGSYDLGERKPSSAAYQKAPTKEFYA [K174A;D175A] | decreasing interaction
2 | MQRAWILLTLGLMACVSAETRAELTSDKDMYLDSSSIEEASGLYPIDDDDYSSASGSGAYEDKGSPDLTTSQLIPRISLTSAAPEVETMTLKTQSITPTQTESPEETDKKEFEISEAEEKQDPAVKSTDVYTEKHSDNLFKRTEVLAAVIAGGVIGFLFAIFLILLLVYRMAAKDEGSYDLGERKPSSAAYQKAPTKEFYA [R172A;K173A] | decreasing interaction

Other lines, results leading:

Row | effect of a mutation on the interaction | Variant
3 | increasing interaction | MQRAWILLTLGLMACVSAETRAELTSDKDMYLDSSSIEEASGLYPIDDDDYSSASGSGAYEDKGSPDLTTSQLIPRISLTSAAPEVETMTLKTQSITPTQTESPEETDKKEFEISEAEEKQDPAVKSTDVYTEKHSDNLFKRTEVLAAVIAGGVIGFLFAIFLILLLVYRMRKKDEGAADLGERKPSSAAYQKAPTKEFYA [S178A;Y179A]
4 | decreasing interaction | MQRAWILLTLGLMACVSAETRAELTSDKDMYLDSSSIEEASGLYPIDDDDYSSASGSGAYEDKGSPDLTTSQLIPRISLTSAAPEVETMTLKTQSITPTQTESPEETDKKEFEISEAEEKQDPAVKSTDVYTEKHSDNLFKRTEVLAAVIAGGVIGFLFAIFLILLLVYRMRKKDAASYDLGERKPSSAAYQKAPTKEFYA [E176A;G177A]

Variants of: B1
Settings: with nf1_human NF1, P21359
Remark: another data set of the same source

Row | effect of a mutation on the interaction | Variant
5 | decreasing interaction | MQRAWILLTLGLMACVSAETRAELTSDKDMYLDSSSIEEASGLYPIDDDDYSSASGSGAYEDKGSPDLTTSQLIPRISLTSAAPEVETMTLKTQSITPTQTESPEETDKKEFEISEAEEKQDPAVKSTDVYTEKHSDNLFKRTEVLAAVIAGGVIGFLFAIFLILLLVYRMRKKDEGAADLGERKPSSAAYQKAPTKEFYA [S178A;Y179A]
